The test deals with T1, Bre1-LR (Bre1 residues 227–700, LBD and RING domains), 6× histidine tag (budding yeast, UniProt Q07457 227-700).
T1 construct: two Bre1 polypeptides form the dimeric coiled-coils of the LBD in the crystal structure; also called WT; source: E. coli BL21 Rosetta (DE3), purified (Ni-NTA, heparin, gel filtration)
T1 sequence (looked up): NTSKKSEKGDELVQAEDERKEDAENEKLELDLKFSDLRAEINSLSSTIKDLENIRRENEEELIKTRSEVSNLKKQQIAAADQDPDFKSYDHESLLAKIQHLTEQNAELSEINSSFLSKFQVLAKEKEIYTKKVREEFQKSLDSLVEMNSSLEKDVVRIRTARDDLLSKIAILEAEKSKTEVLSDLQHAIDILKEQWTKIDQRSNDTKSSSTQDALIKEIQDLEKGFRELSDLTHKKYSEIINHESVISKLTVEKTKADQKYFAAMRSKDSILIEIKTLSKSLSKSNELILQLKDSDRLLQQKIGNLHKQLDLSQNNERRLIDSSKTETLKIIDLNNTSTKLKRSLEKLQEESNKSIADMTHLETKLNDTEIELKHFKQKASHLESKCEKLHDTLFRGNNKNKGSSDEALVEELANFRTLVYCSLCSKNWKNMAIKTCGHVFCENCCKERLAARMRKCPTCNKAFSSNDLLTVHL
The test can be described thus: ITC; Lge1-CT (50–60 μM) injected into Bre1-LR (15 μM); 25°C, 20 mM TRIS (pH 7.5), 200 mM sodium chloride. Particulars: both partners purified. (Isothermal titration calorimetry measures the heat released or taken up as one component is titrated into another.)

B1: Lge1-CT (Lge1 residues 261–332), intein-chitin binding domain (CBD) tag construct (domain or fragment, budding yeast, UniProt Q02796 261-332, looked up)
chain: KNVKKTNNTESECEKAREVFKESDSIDSALEELNLKINSNELELRLLNNQCDKHALNIQLTQEKLDSLLLMQ
notes: Lge1, budding yeast, residues 261-332; residues 268–331 resolved in the electron density; the intein-CBD tag is named on the protein in the pull-down; also called intein-CBD-fused Lge1-CT; intein-CBD-tagged Lge1-CT; source: E. coli BL21 Rosetta (DE3): cleared cell extract on chitin resin (pull-down); purified (chitin, heparin, gel filtration) for ITC and SPR; co-purified with Bre1-LR for the …
As for B1, the Kd (in general, the constant that tells how readily two partners part at equilibrium) came to 24.5 ± 4.5 nM; the dH is -50.5 ± 1 kcal/mol; the stoichiometry N (in general, a count of units in the complex or per binding partner) is 0.396 ± 0.003.

For the origin of these results see PMC12802937 (Nucleic Acids Research, 2026).
